# Experimental data from patent publication US20070059799A1.
# Like-named read-outs stand apart in the source and are kept apart here.
# How the values were obtained:
# [1] = molecular target: HLA-A*0301 (human); experiment: competition with 125I-labelled standard peptide on purified HLA, gel filtration
# [2] = molecular target: HLA-A*1101 (human); experiment: as above
# [3] = molecular target: HLA-A*3101 (human); experiment: as above
# [4] = molecular target: HLA-A*6801 (human); experiment: as above; conditions: remark: other sources report otherwise
# [5] = molecular target: HLA-A*0301 (human)
# [6] = molecular target: HLA-A*0301 (human); remark: listed apart in the source
# [7] = molecular target: HLA-A*3301 (human); experiment: competition with 125I-labelled standard peptide on purified HLA, gel filtration
# [8] = molecular target: HLA-A*1101 (human); experiment: inhibition of 125I-labelled standard peptide binding to purified HLA
# [9] = molecular target: HLA-A*3301 (human); experiment: as above
# [10] = molecular target: HLA-A*0301 (human); experiment: competition with 125I-labelled probe peptide for purified HLA, gel filtration
# [11] = molecular target: HLA-A*0201 (Human); experiment: competition with 125I-labelled standard peptide for purified HLA, gel filtration
# [12] = molecular target: HLA-A*3101 (human); experiment: inhibition of 125I-labelled standard peptide binding to purified HLA
# [13] = molecular target: HLA-A*03 (human); experiment: competition with 125I-labelled probe peptide for purified HLA, gel filtration
# [14] = molecular target: HLA-A*3101 (human); experiment: as above
# [15] = molecular target: HLA-B*0702 (human); experiment: competition with 125I-labelled standard peptide for purified HLA, gel filtration
# [16] = molecular target: HLA-B*5401 (human); experiment: competition with 125I-labelled probe peptide for purified HLA, gel filtration; conditions: remark: other sources report otherwise
# [17] = remark: other sources report otherwise
binder,measurement,setting,value
SAGPCALR (modifications not checked) [HBV X 65 8-mer peptide SAGPCALR (SEQ ID NO: 651)],binding affinity ratio (IC50 of standard peptide / IC50 of test peptide),[1]; [17],-0.0002
same,binding affinity ratio (IC50 of standard peptide / IC50 of test peptide),[2]; [17],0.002
same,binding affinity ratio (IC50 of standard peptide / IC50 of test peptide),[3]; [17],0.0029
same,binding affinity ratio (IC50 of standard peptide / IC50 of test peptide),[4],0.036
TLPETTVVR (modifications not checked) [HBV NUC 171 9-mer peptide … (SEQ ID NO: 662)],binding affinity ratio (IC50 of standard peptide / IC50 of test peptide),[3]; [17],0.0009
same,binding affinity ratio (IC50 of standard peptide / IC50 of test peptide),[4],0.018
TAELLAACFAR (modifications not checked) [HBV POL 716 …],binding affinity ratio (IC50 of standard peptide / IC50 of test peptide),[5]; [17],0.0006
YLVSFGVWIR (modifications not checked) [… (HBV NUC 118)],binding affinity ratio (IC50 of standard peptide / IC50 of test peptide),[6],0.0005
RTPSPRRR (modifications not checked) [HBV NUC 188 8-mer peptide ATPSPRRR (SEQ ID NO: 648)],binding affinity ratio (IC50 of standard peptide / IC50 of test peptide),[1],-0.0002
same,binding affinity ratio (IC50 of standard peptide / IC50 of test peptide),[2],-0.0002
same,binding affinity ratio (IC50 of standard peptide / IC50 of test peptide),[3],0.0033
same,binding affinity ratio (IC50 of standard peptide / IC50 of test peptide),[7],0.0014
PVGAESRGR (modifications not checked) [HBV X 20 peptide …],binding affinity ratio (IC50 of standard peptide / IC50 of test peptide),[8],0.0005
same,binding affinity ratio (IC50 of standard peptide / IC50 of test peptide),[9],0.0043
SALNPADDPSR (modifications not checked) [HBV POL 771 11-mer peptide … (SEQ ID NO: 654)],binding affinity ratio (IC50 of standard peptide / IC50 of test peptide),[1],-0.0004
same,binding affinity ratio (IC50 of standard peptide / IC50 of test peptide),[2],-0.0003
same,binding affinity ratio (IC50 of standard peptide / IC50 of test peptide),[3],-0.0012
same,binding affinity ratio (IC50 of standard peptide / IC50 of test peptide),[7],-0.0023
LLDTASALYR (modifications not checked) [HBV NUC 30 peptide …],binding affinity ratio (IC50 of standard peptide / IC50 of test peptide),[10],0.005
TLWKAGILYKR (modifications not checked) [HBV POL 150 …],binding affinity ratio (IC50 of standard peptide / IC50 of test peptide),[5]; [17],0.0082
GLSPTVWL (modifications not checked) [HBV ENV 348 peptide GLSPTVWL],binding affinity ratio (IC50 of standard peptide / IC50 of test peptide),[11],0.0036
PLTVNEKR (modifications not checked) [HBV POL 98 peptide PLTVNEKR],binding affinity ratio (IC50 of standard peptide / IC50 of test peptide),[8],-0.0002
same,binding affinity ratio (IC50 of standard peptide / IC50 of test peptide),[12],-0.0009
same,binding affinity ratio (IC50 of standard peptide / IC50 of test peptide),[9],-0.0009
"AFTFSPTYK (modifications not checked) [peptide 20.0130 (HBV pol 655, …)]",IC50,[13]; [17],42 nM
same,IC50,[14]; [17],3100 nM
WLWGMDIDPYK (modifications not checked) [… (HBV NUC 26)],binding affinity ratio (IC50 of standard peptide / IC50 of test peptide),[6]; [17],0.003
"HTLWKAGILYK (modifications not checked) [peptide 1147.16 (HBV pol 149, …)]",IC50,[13],20 nM
VPNLQSLTNL (modifications not checked) [HBV POL 398 peptide …],binding affinity ratio (IC50 of standard peptide / IC50 of test peptide),[15],0.0008
PLTVNEKRR (modifications not checked) [HBV POL 98 peptide …],binding affinity ratio (IC50 of standard peptide / IC50 of test peptide),[8],0.0005
same,binding affinity ratio (IC50 of standard peptide / IC50 of test peptide),[9],0.0027
GLLGFAAPFT (modifications not checked) [HBV POL 627 peptide …],binding affinity ratio (IC50 of standard peptide / IC50 of test peptide),[11],0.0049
PLSYQHFRK (modifications not checked) [HBV POL 2 peptide …],binding affinity ratio (IC50 of standard peptide / IC50 of test peptide),[8],0.0031
same,binding affinity ratio (IC50 of standard peptide / IC50 of test peptide),[12],0.0006
TDNSVVLSRK (modifications not checked) [HBV POL 736 …],binding affinity ratio (IC50 of standard peptide / IC50 of test peptide),[5],0.0006
YSLNFMGY (modifications not checked) [YSLNFMGY (HBV POL 580)],binding affinity ratio (IC50 of standard peptide / IC50 of test peptide),[6],-0.0002
TSAICSVVRR (modifications not checked) [HBV POL 519 10-mer peptide … (SEQ ID NO: 668)],binding affinity ratio (IC50 of standard peptide / IC50 of test peptide),[1],0.0018
PLSYQHFR (modifications not checked) [HBV POL 2 peptide PLSYQHFR],binding affinity ratio (IC50 of standard peptide / IC50 of test peptide),[12],-0.0009
same,binding affinity ratio (IC50 of standard peptide / IC50 of test peptide),[9],-0.0009
"SVVRRAFPH (modifications not checked) [peptide 20.0131 (HBV pol 524, …)]",IC50,[13]; [17],100 nM
"RLVVDFSQFSR (modifications not checked) [peptide 26.0539 (HBV POL 376, …)]",IC50,[13],39 nM
same,IC50,[14],7 nM
WLQFRNSK (modifications not checked) [WLQFRNSK (HBV POL 314)],binding affinity ratio (IC50 of standard peptide / IC50 of test peptide),[6],-0.0002
LPIHTAELLA (modifications not checked) [HBV POL 723 peptide 16.0181 (…)],IC50,[16],30 nM
TSAICSVVR (modifications not checked) [HBV POL 519 9-mer peptide … (SEQ ID NO: 667)],binding affinity ratio (IC50 of standard peptide / IC50 of test peptide),[1]; [17],0.0005
same,binding affinity ratio (IC50 of standard peptide / IC50 of test peptide),[3]; [17],0.06
same,binding affinity ratio (IC50 of standard peptide / IC50 of test peptide),[7]; [17],0.02
same,binding affinity ratio (IC50 of standard peptide / IC50 of test peptide),[4],0.082
PLEEELPR (modifications not checked) [HBV POL 20 peptide PLEEELPR],binding affinity ratio (IC50 of standard peptide / IC50 of test peptide),[8],-0.0002
same,binding affinity ratio (IC50 of standard peptide / IC50 of test peptide),[12],-0.0009
same,binding affinity ratio (IC50 of standard peptide / IC50 of test peptide),[9],-0.0009
"VSFGVWIR (modifications not checked) [peptide 26.0023 (HBV X NUC FUS 296, VSFGVWIR)]",IC50,[13]; [17],2750 nM
WIRTPPAY (modifications not checked) [WIRTPPAY (HBV NUC 125)],binding affinity ratio (IC50 of standard peptide / IC50 of test peptide),[6],-0.0002
TAELLAACFAR (modifications not checked) [HBV POL 716 11-mer peptide … (SEQ ID NO: 661)],binding affinity ratio (IC50 of standard peptide / IC50 of test peptide),[1]; [17],0.0006
same,binding affinity ratio (IC50 of standard peptide / IC50 of test peptide),[2]; [17],0.0023
same,binding affinity ratio (IC50 of standard peptide / IC50 of test peptide),[3]; [17],0.0066
same,binding affinity ratio (IC50 of standard peptide / IC50 of test peptide),[7]; [17],0.16
same,binding affinity ratio (IC50 of standard peptide / IC50 of test peptide),[4],0.059
"GVWIRTPPAYR (modifications not checked) [peptide 26.0535 (HBV X NUC FUS 299, …)]",IC50,[13],58 nM
same,IC50,[14],3 nM
TSAICSVVR (modifications not checked) [HBV POL 519 …],binding affinity ratio (IC50 of standard peptide / IC50 of test peptide),[5]; [17],0.0005
SAICSVVR (modifications not checked) [HBV POL 520 8-mer peptide SAICSVVR (SEQ ID NO: 652)],binding affinity ratio (IC50 of standard peptide / IC50 of test peptide),[2]; [17],0.0071
same,binding affinity ratio (IC50 of standard peptide / IC50 of test peptide),[3]; [17],0.028
same,binding affinity ratio (IC50 of standard peptide / IC50 of test peptide),[7]; [17],0.0081
same,binding affinity ratio (IC50 of standard peptide / IC50 of test peptide),[4],0.069
PARDVLCLR (modifications not checked) [HBV X 11 peptide …],binding affinity ratio (IC50 of standard peptide / IC50 of test peptide),[12],0.01
same,binding affinity ratio (IC50 of standard peptide / IC50 of test peptide),[9],0.018
HLNPNKTKR (modifications not checked) [HBV POL 569 peptide …],binding affinity ratio (IC50 of standard peptide / IC50 of test peptide),[10],0.0025
TLWKAGILYKR (modifications not checked) [HBV POL 150 11-mer peptide … (SEQ ID NO: 666)],binding affinity ratio (IC50 of standard peptide / IC50 of test peptide),[1]; [17],0.0082
same,binding affinity ratio (IC50 of standard peptide / IC50 of test peptide),[2]; [17],0.0095
same,binding affinity ratio (IC50 of standard peptide / IC50 of test peptide),[3]; [17],0.1
same,binding affinity ratio (IC50 of standard peptide / IC50 of test peptide),[7]; [17],0.11
same,binding affinity ratio (IC50 of standard peptide / IC50 of test peptide),[4],0.064
